The EC50 is the concentration at which the effect is half-maximal.

In patent US20250171562A1 one finds Max effect/effect 1 µM and EC50 data, which are given here for six molecules.

To fix the notation:
B1: NIgG4B3A1(G4S)2 (Fc fusion)
chain 1: DVQLQESGGGLVQAGGSLRLSCAASGFIFRLAGMSWVRQAPGKGFEWVSGITMDGSTTNYADSVKGRFTISRDNSKNRLYLQMNSLKPEDTAVYYCARGAKGGYNDPRGQGTQVTVSGGGGSGGGGSGPPCPPCPAPEFLGGPSVFLFPPKPKDTLMISRTPEVTCVVVDVSQEDPEVQFNWYVDGVEVHNAKTKPREEQFNSTYRVVSVLTVLHQDWLNGKEYKCKVSNKGLPSSIEKTISKAKGQPREPQVYTLPPCQEEMTKNQVSLWCLVKGFYPSDIAVEWESNGQPENNYKTTPPVLDSDGSFFLYSRLTVDKSRWQEGNVFSCSVMHEALHNHYTQKSLSLSLGK
chain 2: EVQLLESGGGLVQPGGSLRLSCAASGFTFGNYDMAWVRQAPGKRPEWVSSIDTGGDITHYADSVKGRFTISRDNAKNTLYLQMNSLRPEDTAVYWCATDEEYALGPNEFDYYGQGTLVTVSSGGGGSGGGGSGPPCPPCPAPEFLGGPSVFLFPPKPKDTLMISRTPEVTCVVVDVSQEDPEVQFNWYVDGVEVHNAKTKPREEQFNSTYRVVSVLTVLHQDWLNGKEYKCKVSNKGLPSSIEKTISKAKGQPREPQVCTLPPSQEEMTKNQVSLSCAVKGFYPSDIAVEWESNGQPENNYKTTPPVLDSDGSFFLVSRLTVDKSRWQEGNVFSCSVMHEALHNHYTQKSLSLSLGK
B2: NIgG4B1A2(RS) (Fc fusion)
chain 1: QVQLQESGGGLVQTGGSLRLSCAVHGRTFSNTGMGWFRQAPGNERQFVAIISPSGTSTYYADSVKGRFTISRDPAKNTVYLQMNSLKMDDTAVYYCAASYGSNWSTLRHQRRNEYDAWGQGTQVAVSRSGPPCPPCPAPEFLGGPSVFLFPPKPKDTLMISRTPEVTCVVVDVSQEDPEVQFNWYVDGVEVHNAKTKPREEQFNSTYRVVSVLTVLHQDWLNGKEYKCKVSNKGLPSSIEKTISKAKGQPREPQVYTLPPCQEEMTKNQVSLWCLVKGFYPSDIAVEWESNGQPENNYKTTPPVLDSDGSFFLYSRLTVDKSRWQEGNVFSCSVMHEALHNHYTQKSLSLSLGK
chain 2: EVQLLESGGGLVQPGGSLRLSCAASGFRFGNYDMAWVRQAPGKRYEWVSSIDTGGDITHYADSVKGRFTISRDNAKNTLYLQMNSLRPEDTAEYWCATDEEYALGPNEFDYYGQGTLVTVSRSGPPCPPCPAPEFLGGPSVFLFPPKPKDTLMISRTPEVTCVVVDVSQEDPEVQFNWYVDGVEVHNAKTKPREEQFNSTYRVVSVLTVLHQDWLNGKEYKCKVSNKGLPSSIEKTISKAKGQPREPQVCTLPPSQEEMTKNQVSLSCAVKGFYPSDIAVEWESNGQPENNYKTTPPVLDSDGSFFLVSRLTVDKSRWQEGNVFSCSVMHEALHNHYTQKSLSLSLGK
B3: NIgG4B1A2(G4S)1 (Fc fusion)
chain 1: QVQLQESGGGLVQTGGSLRLSCAVHGRTFSNTGMGWFRQAPGNERQFVAIISPSGTSTYYADSVKGRFTISRDPAKNTVYLQMNSLKMDDTAVYYCAASYGSNWSTLRHQRRNEYDAWGQGTQVAVSGGGGSGPPCPPCPAPEFLGGPSVFLFPPKPKDTLMISRTPEVTCVVVDVSQEDPEVQFNWYVDGVEVHNAKTKPREEQFNSTYRVVSVLTVLHQDWLNGKEYKCKVSNKGLPSSIEKTISKAKGQPREPQVYTLPPCQEEMTKNQVSLWCLVKGFYPSDIAVEWESNGQPENNYKTTPPVLDSDGSFFLYSRLTVDKSRWQEGNVFSCSVMHEALHNHYTQKSLSLSLGK
chain 2: EVQLLESGGGLVQPGGSLRLSCAASGFRFGNYDMAWVRQAPGKRYEWVSSIDTGGDITHYADSVKGRFTISRDNAKNTLYLQMNSLRPEDTAEYWCATDEEYALGPNEFDYYGQGTLVTVSGGGGSGPPCPPCPAPEFLGGPSVFLFPPKPKDTLMISRTPEVTCVVVDVSQEDPEVQFNWYVDGVEVHNAKTKPREEQFNSTYRVVSVLTVLHQDWLNGKEYKCKVSNKGLPSSIEKTISKAKGQPREPQVCTLPPSQEEMTKNQVSLSCAVKGFYPSDIAVEWESNGQPENNYKTTPPVLDSDGSFFLVSRLTVDKSRWQEGNVFSCSVMHEALHNHYTQKSLSLSLGK
B4: NIgG4B1A2(G4S)3 (Fc fusion)
chain 1: QVQLQESGGGLVQTGGSLRLSCAVHGRTFSNTGMGWFRQAPGNERQFVAIISPSGTSTYYADSVKGRFTISRDPAKNTVYLQMNSLKMDDTAVYYCAASYGSNWSTLRHQRRNEYDAWGQGTQVAVSGGGGSGGGGSGGGGSGPPCPPCPAPEFLGGPSVFLFPPKPKDTLMISRTPEVTCVVVDVSQEDPEVQFNWYVDGVEVHNAKTKPREEQFNSTYRVVSVLTVLHQDWLNGKEYKCKVSNKGLPSSIEKTISKAKGQPREPQVYTLPPCQEEMTKNQVSLWCLVKGFYPSDIAVEWESNGQPENNYKTTPPVLDSDGSFFLYSRLTVDKSRWQEGNVFSCSVMHEALHNHYTQKSLSLSLGK
chain 2: EVQLLESGGGLVQPGGSLRLSCAASGFRFGNYDMAWVRQAPGKRYEWVSSIDTGGDITHYADSVKGRFTISRDNAKNTLYLQMNSLRPEDTAEYWCATDEEYALGPNEFDYYGQGTLVTVSGGGGSGGGGSGGGGSGPPCPPCPAPEFLGGPSVFLFPPKPKDTLMISRTPEVTCVVVDVSQEDPEVQFNWYVDGVEVHNAKTKPREEQFNSTYRVVSVLTVLHQDWLNGKEYKCKVSNKGLPSSIEKTISKAKGQPREPQVCTLPPSQEEMTKNQVSLSCAVKGFYPSDIAVEWESNGQPENNYKTTPPVLDSDGSFFLVSRLTVDKSRWQEGNVFSCSVMHEALHNHYTQKSLSLSLGK
B5: NIgG4B1A2(G4S)2 (Fc fusion)
chain 1: QVQLQESGGGLVQTGGSLRLSCAVHGRTFSNTGMGWFRQAPGNERQFVAIISPSGTSTYYADSVKGRFTISRDPAKNTVYLQMNSLKMDDTAVYYCAASYGSNWSTLRHQRRNEYDAWGQGTQVAVSGGGGSGGGGSGPPCPPCPAPEFLGGPSVFLFPPKPKDTLMISRTPEVTCVVVDVSQEDPEVQFNWYVDGVEVHNAKTKPREEQFNSTYRVVSVLTVLHQDWLNGKEYKCKVSNKGLPSSIEKTISKAKGQPREPQVYTLPPCQEEMTKNQVSLWCLVKGFYPSDIAVEWESNGQPENNYKTTPPVLDSDGSFFLYSRLTVDKSRWQEGNVFSCSVMHEALHNHYTQKSLSLSLGK
chain 2: EVQLLESGGGLVQPGGSLRLSCAASGFRFGNYDMAWVRQAPGKRYEWVSSIDTGGDITHYADSVKGRFTISRDNAKNTLYLQMNSLRPEDTAEYWCATDEEYALGPNEFDYYGQGTLVTVSGGGGSGGGGSGPPCPPCPAPEFLGGPSVFLFPPKPKDTLMISRTPEVTCVVVDVSQEDPEVQFNWYVDGVEVHNAKTKPREEQFNSTYRVVSVLTVLHQDWLNGKEYKCKVSNKGLPSSIEKTISKAKGQPREPQVCTLPPSQEEMTKNQVSLSCAVKGFYPSDIAVEWESNGQPENNYKTTPPVLDSDGSFFLVSRLTVDKSRWQEGNVFSCSVMHEALHNHYTQKSLSLSLGK
B6: NIgG4B3A1(G4S)3 (Fc fusion)
chain 1: DVQLQESGGGLVQAGGSLRLSCAASGFIFRLAGMSWVRQAPGKGFEWVSGITMDGSTTNYADSVKGRFTISRDNSKNRLYLQMNSLKPEDTAVYYCARGAKGGYNDPRGQGTQVTVSGGGGSGGGGSGGGGSGPPCPPCPAPEFLGGPSVFLFPPKPKDTLMISRTPEVTCVVVDVSQEDPEVQFNWYVDGVEVHNAKTKPREEQFNSTYRVVSVLTVLHQDWLNGKEYKCKVSNKGLPSSIEKTISKAKGQPREPQVYTLPPCQEEMTKNQVSLWCLVKGFYPSDIAVEWESNGQPENNYKTTPPVLDSDGSFFLYSRLTVDKSRWQEGNVFSCSVMHEALHNHYTQKSLSLSLGK
chain 2: EVQLLESGGGLVQPGGSLRLSCAASGFTFGNYDMAWVRQAPGKRPEWVSSIDTGGDITHYADSVKGRFTISRDNAKNTLYLQMNSLRPEDTAVYWCATDEEYALGPNEFDYYGQGTLVTVSSGGGGSGGGGSGGGGSGPPCPPCPAPEFLGGPSVFLFPPKPKDTLMISRTPEVTCVVVDVSQEDPEVQFNWYVDGVEVHNAKTKPREEQFNSTYRVVSVLTVLHQDWLNGKEYKCKVSNKGLPSSIEKTISKAKGQPREPQVCTLPPSQEEMTKNQVSLSCAVKGFYPSDIAVEWESNGQPENNYKTTPPVLDSDGSFFLVSRLTVDKSRWQEGNVFSCSVMHEALHNHYTQKSLSLSLGK

Chain of mixture of three Der p 2 specific recombinant human IgE clones H10, H12, P4E (human) (P01854 other isoform, or with tags, fused parts or gaps): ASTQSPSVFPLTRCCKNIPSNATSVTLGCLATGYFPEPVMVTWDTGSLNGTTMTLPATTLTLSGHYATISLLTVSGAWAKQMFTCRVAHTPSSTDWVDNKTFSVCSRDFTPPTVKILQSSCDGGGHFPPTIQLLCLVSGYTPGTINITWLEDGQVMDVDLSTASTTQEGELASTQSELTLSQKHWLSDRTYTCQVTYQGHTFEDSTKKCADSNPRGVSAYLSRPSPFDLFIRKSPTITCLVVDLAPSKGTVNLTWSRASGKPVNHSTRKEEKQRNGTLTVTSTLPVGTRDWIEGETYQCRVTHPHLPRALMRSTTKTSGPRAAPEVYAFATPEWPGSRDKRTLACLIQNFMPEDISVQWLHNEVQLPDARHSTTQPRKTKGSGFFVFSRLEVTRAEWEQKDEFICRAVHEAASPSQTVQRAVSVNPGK

This assay has as its target mixture of three Der p 2 specific recombinant human IgE clones H10, H12, P4E (human) (UniProt P01854). As to the kind of experiment: RBL-SX38 IgE displacement, FACS.
As for B1, the Max effect/effect 1 µM came out at 94%.

Take B2: the EC50 was 0.6 nM and the Max effect/effect 1 µM came to 99%. For B3, in that order: 0.4 nM and 100%. For B4, in that order: 0.5 nM and 100%. For B5, in that order: 0.4 nM and 100%. In the case of B6, the Max effect/effect 1 µM was found to be 93%.
